Target: carcinoembryonic antigen (CEA) (UniProt P06731 35-685)
Experiment: agarose gel (displacement of Walker strand from aptamer-Walker duplex); 10 ng/mL CEA; DNA 10 uM; aptamer pre-hybridised to Walker; aptamer-Walker duplex formed in 1x PBS (0.01 M, pH 7.4) at 37 C for 1 h; sensor with 10 mM Mn2+; gel binding buffer not given in the available material
Settings: protein displaces Walker

carcinoembryonic antigen (CEA), sequence (P06731 35-685): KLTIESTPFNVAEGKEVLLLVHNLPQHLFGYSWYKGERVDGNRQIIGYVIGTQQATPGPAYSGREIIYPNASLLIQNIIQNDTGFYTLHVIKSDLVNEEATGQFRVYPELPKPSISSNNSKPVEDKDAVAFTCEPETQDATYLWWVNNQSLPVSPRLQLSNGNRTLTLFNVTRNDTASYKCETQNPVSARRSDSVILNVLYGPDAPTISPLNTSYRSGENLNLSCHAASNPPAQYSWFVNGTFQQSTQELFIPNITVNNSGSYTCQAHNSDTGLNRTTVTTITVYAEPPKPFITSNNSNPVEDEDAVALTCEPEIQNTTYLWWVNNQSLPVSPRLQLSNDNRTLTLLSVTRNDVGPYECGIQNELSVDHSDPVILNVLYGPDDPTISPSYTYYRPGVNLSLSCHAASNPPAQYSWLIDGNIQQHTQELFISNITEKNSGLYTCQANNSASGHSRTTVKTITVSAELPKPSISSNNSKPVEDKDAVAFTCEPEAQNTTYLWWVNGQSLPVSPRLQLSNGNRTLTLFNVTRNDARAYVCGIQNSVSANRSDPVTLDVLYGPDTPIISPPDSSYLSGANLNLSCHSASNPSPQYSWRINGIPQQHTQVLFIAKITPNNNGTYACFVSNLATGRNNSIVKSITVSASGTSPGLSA

Binder: ATACCAGCTTATTCAATT (ssDNA) [CEA aptamer]
- binding result: binds
